Paper PMC6922461

How the values were obtained:
[1] = target: trivalent Strep-Tactin-SpyCatcher; test: SPR
[2] = target: monovalent Strep-Tactin-SpyCatcherΔ; test: SPR
monovalent Strep-Tactin-SpyCatcherΔ, sequence (P22629 other isoform, or with tags, fused parts or gaps mutant, chain 1 of 2): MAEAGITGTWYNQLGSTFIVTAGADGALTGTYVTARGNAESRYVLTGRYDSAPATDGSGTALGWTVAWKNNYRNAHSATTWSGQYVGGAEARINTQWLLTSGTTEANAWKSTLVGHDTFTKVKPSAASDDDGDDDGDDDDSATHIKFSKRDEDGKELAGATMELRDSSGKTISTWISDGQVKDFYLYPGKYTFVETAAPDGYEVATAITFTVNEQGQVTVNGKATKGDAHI
monovalent Strep-Tactin-SpyCatcherΔ, sequence (P22629 other isoform, or with tags, fused parts or gaps mutant, chain 2 of 2): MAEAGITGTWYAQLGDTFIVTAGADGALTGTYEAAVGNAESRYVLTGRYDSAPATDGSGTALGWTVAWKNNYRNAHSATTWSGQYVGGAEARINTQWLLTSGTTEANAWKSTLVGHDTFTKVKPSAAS

trivalent Strep-Tactin-SpyCatcher, sequence (P22629 other isoform, or with tags, fused parts or gaps, chain 1 of 2): as the sequence (P22629 other isoform, or with tags, fused parts or gaps mutant, chain 2 of 2) above, with A12N, D16S, E33V, A34T, V36R counted along it
trivalent Strep-Tactin-SpyCatcher, sequence (P22629 other isoform, or with tags, fused parts or gaps, chain 2 of 2): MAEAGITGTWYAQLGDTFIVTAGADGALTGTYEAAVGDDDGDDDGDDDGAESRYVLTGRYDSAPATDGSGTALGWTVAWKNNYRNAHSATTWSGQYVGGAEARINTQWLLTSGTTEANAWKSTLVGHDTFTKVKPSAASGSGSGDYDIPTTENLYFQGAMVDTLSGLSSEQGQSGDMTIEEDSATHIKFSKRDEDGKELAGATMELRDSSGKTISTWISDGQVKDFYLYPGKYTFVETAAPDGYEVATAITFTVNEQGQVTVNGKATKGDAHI

| Substance | Kd [1] | Kd [2] |
| --- | --- | --- |
| Twin-Strep-tag–mTFP fusion protein | 6.8 µM | – |
| Strep-tag II–mTFP | – | 43 µM |
